Measurements: PMC2865556 (Integrative biology : quantitative biosciences from nano to …, 2009)

Biological target: full-length t-SNARE heterodimer (syntaxin 1A and SNAP-25) (UniProt P32851 1-288; P60879 1-206)
Test: AFM single-molecule force spectroscopy

full-length t-SNARE heterodimer (syntaxin 1A and SNAP-25), sequence (P32851 whole entry, chain 1 of 2): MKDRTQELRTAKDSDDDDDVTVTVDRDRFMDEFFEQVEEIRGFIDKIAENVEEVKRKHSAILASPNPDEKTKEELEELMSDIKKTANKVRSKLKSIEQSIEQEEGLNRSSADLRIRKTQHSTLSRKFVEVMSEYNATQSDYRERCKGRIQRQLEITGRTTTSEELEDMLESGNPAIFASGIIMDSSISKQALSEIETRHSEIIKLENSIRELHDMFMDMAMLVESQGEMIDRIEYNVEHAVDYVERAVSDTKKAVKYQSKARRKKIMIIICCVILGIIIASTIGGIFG
full-length t-SNARE heterodimer (syntaxin 1A and SNAP-25), sequence (P60879 whole entry, chain 2 of 2): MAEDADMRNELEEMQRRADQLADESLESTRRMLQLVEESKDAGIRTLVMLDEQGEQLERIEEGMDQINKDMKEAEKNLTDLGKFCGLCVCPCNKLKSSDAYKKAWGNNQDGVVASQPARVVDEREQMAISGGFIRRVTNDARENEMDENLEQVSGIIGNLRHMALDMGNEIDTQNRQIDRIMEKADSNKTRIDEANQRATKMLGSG

Binder: FETSAAKLKRKYWWKNLKMMIILGVICAIILIIIIVYFST (domain or fragment) [VAMP 2 in v-SNARE bilayers after cleavage by BoNT/B (remaining membrane-anchored portion)]
- dissociation rate of the inner barrier (kβ1^o): 20.1 s⁻¹
- dissociation rate of the outer barrier (kβ2^o): 0.46 s⁻¹
